Measured values taken from PMC6726451 (Science Advances, 2019).

What was measured:
SEC = molecular target: the molecule itself; assay: SEC
SEC-MALS = molecular target: the molecule itself; assay: SEC-MALS

B1: caseinolytic protease ClpP from Thermus thermophilus (TtClpP) (enzyme)
chain: not shown
For B1, the “stoichiometry N” value (SEC) was 7 and the “stoichiometry N” value (SEC-MALS) was 14.
